The record followed here is PMC7039123.

Test [1] concerns the target R17^GAG2 (333KGRRK337 to 333DGEED337) (rodent herpesvirus Peru (RHVP)). Nature of the test: SPR.
Test [2] deals with R17 266NAGAQ270 mutant (rodent herpesvirus Peru (RHVP)). Nature of the test: SPR.

Molecule “murine CCL2^K47N (from UniProt P10148 24-148) (ligand)” displayed a t1/2 in test [1] of 5.5 s.

As for “murine CCL2^L46R (from UniProt P10148 24-148) (ligand)”, the fold longer half life than wild type CCL2 in test [1] stood at 2 fold.

In test [1], “murine CCL2^L46RK47N (from UniProt P10148 24-148) (ligand)” showed a t1/2 of over 900 s.

B1: murine CCL3 (ligand)
chain: APYGADTPTACCFSYSRKIPRQFIVDYFETSSLCSQPGVIFLTKRNRQICADSKETWVQEYITDLELNA
In test [2], B1 showed a fold faster kinetic off-rate than with wild type R17 of over 100 fold and a t1/2 of 11 s.
